Among the data in patent publication US20260159575A1 are target engagement (E2814-bound MTBR-tau as percent of total free plus bound) values, retold here.

The target in this experiment is MTBR-tau354 (human) (UniProt P10636). In words: target engagement in human CSF, ex vivo; multiple dose 3000 mg Q4W, E2814 CSF concentrations 200-400 ng/mL; bound/(free+bound) proxy peptide.

B1: antibody E2814 (antibody, human IgG1, kappa, V domains shown)
VH: EVQLLESGGGLVQPGGSLRLSCAASGYTFTTYWITWVRQAPGKGLEWVSDIYPGSSISNYNEKFKSRFTISVDNSKNTLYLQMNSLRAEDTAVYYCAREDGYDAWFAYWGQGTLVTVSS
VL: DIQMTQSPSSLSASVGDRVTITCRSSQSILHSNGNTYLEWYQQKPGKAPKLLISKVSNRFSGVPSRFSGSGSGTDFTLTISSLQPEDFATYYCFQGSHVPFTFGQGTKLEIKR
B1: the target engagement (E2814-bound MTBR-tau as percent of total free plus bound) amounted to 70%.
